Measurements published in PMC10593741.

What was measured:
[1] = tested on: ORC-JF646 (Origin Recognition Complex, HaloTag-JF646 on N-terminus of Orc3) (Saccharomyces cerevisiae); experiment: single-molecule fluorescence with optical tweezers; details: Bulk loading: 25 mM HEPES-KOH pH 7.6, 10 mM MgOAc, 100 mM KOAc, 0.02% NP40, 5% glycerol, 1 mM DTT, 5 mM ATP or ATPgS, 30 C, single-molecule buffer not …; for binding signal (% of foci in origin bin): 5 nM ORC, 5 s rapid binding, 30 min; for binding signal (% of DNA molecules with ORC): Cdc6, ATP, 30 min stable binding
[2] = tested on: Histone octamer H2A(K120C)-AF488/H2B/H3/H4 (Saccharomyces cerevisiae); experiment: single-molecule fluorescence of reconstituted nucleosomes; details: 100 mM KOAc, 0.02% NP40, 5% glycerol, 1 mM DTT, 5 mM ATP or ATPgS, 30 C, single-molecule buffer not …
[3] = target: H3-H4 tetramer of S. cerevisiae (on DNA: H3-H4 tetrasome) (S. cerevisiae) (UniProt P61830); experiment: single-molecule photobleaching step counting, fit of a probability model; H2A^AF488 foci, chromatinized ARS1 origin, after 30 min bulk incubation in buffer only
[4] = target: H3-H4 tetramer of S. cerevisiae (on DNA: H3-H4 tetrasome) (S. cerevisiae) (UniProt P61830); experiment: single-molecule photobleaching step counting, fit of a probability model; H2A^AF488 foci, chromatinized ARS1 origin, after 30 min bulk incubation with ORC^JF646 and Cdc6
[5] = target: H3-H4 tetramer of S. cerevisiae (on DNA: H3-H4 tetrasome) (S. cerevisiae) (UniProt P61830); experiment: single-molecule photobleaching step counting, fit of a probability model; H2A^AF488 foci, chromatinized mutated origin, after 30 min bulk incubation with ORC^JF646 and Cdc6
[6] = target: H3-H4 tetramer of S. cerevisiae (on DNA: H3-H4 tetrasome) (S. cerevisiae) (UniProt P61830); experiment: single-molecule photobleaching step counting, fit of a probability model; H2A^AF488 foci, chromatinized ARS1 origin, after 30 min bulk incubation with ORC, Cdc6 and MCM^JF646/Cdt1
[7] = target: H3-H4 tetramer of S. cerevisiae (on DNA: H3-H4 tetrasome) (S. cerevisiae) (UniProt P61830); experiment: single-molecule photobleaching step counting, fit of a probability model; H2A^AF488 foci, chromatinized mutated origin, after 30 min bulk incubation with ORC, Cdc6 and MCM^JF646/Cdt1
[8] = target: H3-H4 tetramer of S. cerevisiae (on DNA: H3-H4 tetrasome) (S. cerevisiae) (UniProt P61830); experiment: single-molecule photobleaching step counting, fit of a probability model; H2A^AF488 foci at the chromatinized ARS1 origin, imaged immediately after introduction into the flow cell; p_label fixed at 0.81

10.4 kbp DNA, ARS1 origin, bare
binding signal (% of foci in origin bin) [1]: 30
binding signal (% of DNA molecules with ORC) ([1]; 61% of foci in origin bin): 79
binding signal (% of H2A foci in origin bin) ([2]; after 30 min with ORC-JF646 and Cdc6, Bulk loading: 25 mM HEPES-KOH pH 7.6, 10 mM MgOAc): 49
binding signal (% of H2A foci in origin bin) ([2]; salt-gradient dialysis, after 30 min in buffer, chromatinized form is N2, Bulk loading: 25 mM HEPES-KOH pH 7.6, 10 mM MgOAc): 80

10.4 kbp DNA, ARS1 origin, chromatinized (two nucleosomes)
binding signal (% of foci in origin bin) ([1]; nucleosomes): 39
binding signal (% of DNA molecules with ORC) ([1]; nucleosomes, 51% of foci in origin bin): 41

H2A^AF488-H2B dimer (S. cerevisiae H2A K120C labelled with AF488, with H2B) (from UniProt P04911 2-132; P02293 5-131) (complex)
ph2a (probability of H2A-H2B dimer association with the H3-H4 tetrasome) [3]: 0.73
ph2a (probability of H2A-H2B dimer association with the H3-H4 tetrasome) [4]: 0.81
ph2a (probability of H2A-H2B dimer association with the H3-H4 tetrasome) [5]: 0.6
ph2a (probability of H2A-H2B dimer association with the H3-H4 tetrasome) [6]: 0.84
ph2a (probability of H2A-H2B dimer association with the H3-H4 tetrasome) [7]: 0.91
ph2a (probability of H2A-H2B dimer association with the H3-H4 tetrasome) [8]: 0.77
